Usually Kd stands for the equilibrium constant for the complex coming apart. A lower Kd goes with higher affinity.

This note sets out measurements from publication PMC5611513 (Frontiers in Cellular and Infection Microbiology, 2017).

The target of the experiment is T1, TplEi (Pseudomonas aeruginosa, UniProt Q9I3K3).
T1 sequence: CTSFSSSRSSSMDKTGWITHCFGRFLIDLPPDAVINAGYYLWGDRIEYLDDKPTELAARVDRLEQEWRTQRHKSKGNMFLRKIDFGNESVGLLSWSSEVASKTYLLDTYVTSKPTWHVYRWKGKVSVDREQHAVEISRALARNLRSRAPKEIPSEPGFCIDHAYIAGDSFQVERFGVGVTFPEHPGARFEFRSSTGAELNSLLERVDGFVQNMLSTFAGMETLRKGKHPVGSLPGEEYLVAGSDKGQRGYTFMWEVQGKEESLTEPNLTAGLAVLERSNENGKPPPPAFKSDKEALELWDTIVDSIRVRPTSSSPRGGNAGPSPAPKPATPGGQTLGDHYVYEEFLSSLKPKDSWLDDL
Put plainly: ITC. The note with it: both partners purified.

B1: A peptides (“L” peptide, TplE 82-108 plus EQVEVDD) (peptide)
peptide: Ac-DDLFASIGALWTWAWRGPKARQELLKAEQVEVDD-NH2
notes: source: synthetic peptide (solid-phase FMOC, Scilight Biotechnology LLC, HPLC purified)
Consider B1, for which the Kd is ~0.125 µM.

B2: B peptides (“L” peptide, TplE 82-108 plus EQ) (peptide)
peptide: Ac-DDLFASIGALWTWAWRGPKARQELLKAEQ-NH2
notes: as for B1
B2: the equilibrium dissociation constant (Kd) was 0.478 µM.
